Here are results for 23 molecules from patent US20190248902A1 (published 2019).

Residue numbers refer to the chain shown, from its start.

T1: Soluble ASGR-1 (human, UniProt P07306 62-291, biotinylated)
T1 construct: Soluble recombinant protein; also called recombinant, soluble ASGR-1 biotinylated protein
T1 sequence: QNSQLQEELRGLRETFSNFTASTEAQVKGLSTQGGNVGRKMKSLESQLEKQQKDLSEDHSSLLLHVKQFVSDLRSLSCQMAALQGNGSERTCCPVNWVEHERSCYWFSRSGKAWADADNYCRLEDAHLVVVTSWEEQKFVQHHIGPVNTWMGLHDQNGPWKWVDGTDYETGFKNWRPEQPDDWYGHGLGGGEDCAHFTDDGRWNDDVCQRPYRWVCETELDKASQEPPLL

B1: 7E11 (antibody, V domains shown)
VH: QVQLVESGGGVVQPGRSLRLSCAASGFTFSSFGMHWVRQAPGKGLEWVAIIWHDGSNKYYADSVKGRFTISRDNSNNTLYLQMSSLRAEDTAVYYCARDLSMGGMDVWGQGTTVTVSS
VL: DIQMTQSPSSLSASVGDRVTIACRASQNIISYLNWYQQKPGKAPKFLIYTASSLQSGVPSRFSGSGSGTDFTLTISSLQPEDFAIYYCQQTYSTPLTFGGGTKVEIK
notes: Tested as hybridoma supernatant at normalized concentration
B2: 194C10 (antibody, V domains shown)
VH: QVQLQQWGAGLLKPSETLSLTCAVSGGSFRYYYWSWIRQPPGKGLEWFGEINHSGSTNYNPSLKSRVTISIDTSKNQFSLKLRSVTAADTAVYYCARDYGAFDIWGQGTMVTVSS
VL: EIVLTQSPGTLSLSPGERATLSCRASPSVNSGYLAWYQQKPGQTPRLLIFGASSRATGIPDRFSASGSGADFTLTISRLEPEDFAVYFCQQYESSPWTFGQGTKVEIK
notes: as for B1
B3: 202A3 (antibody, V domains shown)
VH: QVQLEQSGAEVKKPGASVKVSCKASGYTFTSYDINWVRQATGQGLEWLGWMNPKRGNTGYAQKFQGRVTMTRNTSISTAHMELSSLRSEDTAVYYCARGRYSREDYYYYYDMDVWGQGTTVTVSS
VL: DIQMSQSPSSLSASVGDRVTITCRASQGIRNDLGWYQQKPGKAPKRLICAASRLQSGVPSRFSGSGSGTEFTLTISSLQPEDFAIYYCLQHHDYPFTFGPGTKVDIK
notes: as for B1
B4: 12D2 (antibody, V domains shown)
VH: EVQLVESGGGLVKPGGSLRLSCAASGFTFSSYSMNWVRQAPGKGLEWVSSISSSSSYIYYADSVKGRFTISRDNAKNSLYLQMNSLRAEDTAVYYCARLGDYWGQGTLVAVSS
VL: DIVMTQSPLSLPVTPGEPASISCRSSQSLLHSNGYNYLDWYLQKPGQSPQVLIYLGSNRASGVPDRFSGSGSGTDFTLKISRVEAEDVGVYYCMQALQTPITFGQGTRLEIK
notes: as for B1
B5: 193E7 (antibody, V domains shown)
VH: QVQLQQWGAGLLKPSETLSLTCAVYGGSFSGYFWTWIRQPPGKGLEWIGEINHSGSTNYNPSLKSRVTISVDTSKNQFSLKLSSVTAADTAVYYCARDYGADYWGQGTLVAVSA
VL: DIQMTQSPSSLSASVGDRVTITCRASQGIRNDLGWYQQKPGKAPKRLIYSASSLQRGVPSRFSGSGSGTEFTLTISSLQPEDFATYYCLQHKRYPLTFGGGTKVEIK
notes: as for B1
B6: 7G4 (antibody, V domains shown)
VH: QVQLVESGGGVVQPGRSLRLSCAASGFTFNNYVMHWVRQAPGKGLEWVAVIWYDGSNKYYADSVKGRFTISRDNSKNTLYLQMTSLRAEDTAVYYCAREKYSSNWYDYGMDVWGQGTTVTVSS
VL: B5 VL with K39R, S50A, R56S, F83S, Q90H, H91Q, K92Y, R93S, L96R, G100Q
notes: as for B1
B7: 5E5 (antibody, V domains shown)
VH: B6 VH with N30S, T84N, A97T, K100V, N104G
VL: B5 VL with S50A, R56S, K92Y, R93S, L96R, G100Q, I106V
notes: as for B1
B8: 54E9 (antibody, V domains shown)
VH: QVQLVQSGAEVKKPGASVKVSCKASGYTFNSYGISWVRLAPGQGLEWMGWISAYNGNTKNAQKLQGRVTMTTDTSTSTAYMELRSLRSDDTAVYYCARHDFWSGYYKGMDVWGQGTTVTVSS
VL: not shown
notes: as for B1
B9: 176H4 (antibody, V domains shown)
VH: QVQLVESGGGVVQPGRSLRLSCAASGFTFSSYGMHWVRQAPGKGLEWVAIIWYDGSYKYYADSVKGRFTISRDNSKNTLYLQMSSLRAEDTAVYYCARDAHDFWSGYFAYWGQGALVTVSS
VL: DIVMTQTPLSLSVTPGQPASISCKSSQSLLHGDGKTYLYWYLQKPGQPPQLLIYEVSNRFSGVPDRFSGSGSGTDFTLKISRVEAEDVGIYYCMQSIQIPWTFGQGTRVEIK
notes: as for B1
B10: 75G3 (antibody, V domains shown)
VH: QVQLQQWGAGLLKPSETLSLTCAVYGGSLSGSYWSWIRQPPGKGLEWIGEINLSGSTNYNPSLKSRVTISVDTSKSQFSLTLRSVTAADTAVYYCARDYGGLDYWGQGTLVTVSS
VL: EIVLTQSPGTLSLSPGERATLSCRARQNVDSSYLAWYQQKPGQAPRLLIYGASSRATGIPDRFSGSGSGTDFTLTISRLEPEDFAVFYCQQYERSPWTFGQGTKVEIK
notes: as for B1
B11: 22G5 (antibody, V domains shown)
VH: EVQLLESGGGLVQPGGSLRLSCAASGFTFSSYAMNWVRQAPGMGLEWVSVISRSGGYTYYADSVKGRFTISRDNSKNTLYLQMNSLRAEDTAVYYCASRLAVAGSEAFDIWGQGTLVTVSS
VL: DIQMTQSPSSLSASVGDRVTITCRASQNISSYLNWYQQKQGKAPKLLIYAASSLQNGVPSRFSGRGSGTDFTLTISSLQPEDFATYYCQQSYRTPLFTFGPGTKVDFK
notes: as for B1
B12: 25A4 (antibody, V domains shown)
VH: QVLLVQSGAEVKRPGASVKVSCKASGYTFTNYDINWVRQATGQGLEWMGWMYPNSGNTGYAQKFQGRVTMTRNTSISTAYMELSSLRSEDTAVYYCASSSGWYYFDYWGQGTLVTVSS
VL: DIVMTQFPDSLAVSLGERATIKCKSSQSVLYSSHNNNYLAWYQQKPGQPPKLLLYWASTRESGVPDRFSGSGSGTEFTLTISSLEAEDVAVYYCQQYYSTPPTFGQGTKVEIK
notes: as for B1
B13: 26C4 (antibody, V domains shown)
VH: B12 VH with L3Q, R13K, T41S, Y52N, K63R, S77N
VL: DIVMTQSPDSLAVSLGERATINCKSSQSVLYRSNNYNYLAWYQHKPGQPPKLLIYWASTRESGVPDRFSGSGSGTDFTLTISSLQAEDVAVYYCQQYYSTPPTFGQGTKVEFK
notes: as for B1
B14: 218G4 (antibody, V domains shown)
VH: QVQLVESGGGVVQPGRSLRLSCAASGFTFSSYGLHWVRQAPGKGLEWVAVIWYDGSNKYYADSVKGRFTISRDNSKNTLYLQMNSLRVEDTAVYYCANWYYYYYGMDVWGQGTTVTVSS
VL: QSVLTQPPSVSAAPGQKVTISCSGSSSNIGNNYVSWYQQLPGTAPKLLLYDSNKRPSGIPARFSGSKSGTSATLGITGLQTGDEADYYCGTWDSSLNTVVFGGGTKLTVL
notes: as for B1
B15: 198D2 (antibody, V domains shown)
VH: QVQLVESGGGVVQPGRSLRLSCAASGFTFRSYGMHWVRQAPGKGLEWVAVIIYDGSYKYYADSVKGRFTISRDNSKNTLYLQMNSLRAEDTAVYYCARTYSGGMDVWGQGTTVTVSS
VL: B14 VL with N31S, L47V, L49I, S52N, A61D, S95R, T98V, V99G
notes: as for B1
B16: 190F8 (antibody, V domains shown)
VH: QVQLVESGGGVVQPGRSLRLSCAASGFTFSTYGMHWVRQAPGKGLEWVAVIWYDGSNKNYADSVKGRFTISRDNSKNTLYLQMNSLRAEDTAVYYCARDQGVGYDGLDVWGQGTTVTVSS
VL: DIQMTQSPSSLSASVGDRVTITCRTSQGIGNYLAWFQQKPGKAPKSLLYKASSLQSGVPSKFSGSGSGTDFTLTISSLQPEDFATYYCQQYMTYPLTFGGGTKVEIK
notes: as for B1
B17: 197G3 (antibody, V domains shown)
VH: B16 VH with A23V, T31S, Y32H, Q100P, G101S, L107M
VL: DIQMTQSPSSLSASVGDRVTITCRASQGIGNHLAWFQQKPGKAPKSLIYAASSLQSGVPSKFSGSRSGTDFSLTISSLQPEDFATYYCQQYSNYPVTFGPGTKVDIK
notes: as for B1
B18: 194C1 (antibody, V domains shown)
VH: B16 VH with T31S, K58E, N59H, D99N, Q100R, D105Y
VL: B16 VL with T25A, G30S, L48I, K50A, Q89L, Q90H, M92L
notes: as for B1
B19: 198G3 (antibody, V domains shown)
VH: B16 VH with R19K, S56T, Y80C
VL: B16 VL with T5A, N31K, S56G
notes: as for B1
B20: 191G1 (antibody, V domains shown)
VH: B16 VH with T31S, K58E, N59H, Q100R, D105Y
VL: B16 VL with T25A, G30S, L48I, K50A, Q90H, M92L
notes: as for B1
B21: 191G10 (antibody, V domains shown)
VH: B16 VH with T31S
VL: B16 VL with N31K, A51V
notes: as for B1
B22: 48B12 (antibody, V domains shown)
VH: EVQLLESGGGLVQPGGSLRLSCAASGFTFSSYAMNWVRQAPGKGLEWVSAISGRGGNTFYADSVKGRFTISRDNSKNTLYLQMNSLRAEDTAVYYCAKRETYNWNYEGFDYWGQGTLVTVSS
VL: SYELTQPPSVSVSPGQTARITCSGDALPKKYAYWYQQKSGQAPVLVIYEDSKRPSGIPERFSGSSSGTMATLTISGAQVEDEADYYCNSTDSSGNHVVFGGGTKLTVL
notes: as for B1
B23: 6G7 (antibody, V domains shown)
VH: QVQLVESGGGVVQPGRSLRLSCAASGFTFSSYGMHWVRQTPGKGLEWVAIISYVGKNKYYADSVKGRFTISRDNSKNTLYLQMNSLRAEDTAVYYCARRGNSYGGYGMDVWGQGTTVTVSS
VL: DIQMTQSPSSRSASVGDRVTITCQASQDISNYLNWCQQKPGKALKLLIYDASTLETGVPSRFSGSGSGTDFTFTISSVQPEDIATYYCQQYDNVPITFGQGTRLEIK
notes: as for B1

This test addresses T1, Soluble ASGR-1. The test is described as follows: limited antigen binding assay; biotinylated soluble ASGR-1 coated at 2.5 ng/mL on LumAvidin beads, FACS. As to the method:
To assess antibody and antigen interaction strength (relative binding affinity), ASGR-1 specific, ligand competing antibody hybridoma supernatants were tested in a limiting antigen binding assay. Titrated amounts of recombinant, soluble ASGR-1 biotinylated protein was incubated with streptavidin-coated LumAvidin Beads® for 45 minutes in the dark at room temperature and washed twice. Beads were resuspeneded in FACS buffer containing Stabilguard® and 0.05% Sodium Azide. Antigen-bound beads were then incubated with normalized hybridoma supernatant sample or controls for 18 hours in the dark at room temperature, washed twice, incubated with Alexa Fluor® 488 IgG fragment-specific detection antibody for 15 minutes in the dark at room temperature, washed once and finally resuspended in FACS buffer. Samples were analyzed using an Intellicyt iQue™ Screener Platform. FACS buffer supplemented with 1 mM Calcium Chloride was used in all steps. […] In this assay method, the antibody binding signal correlates with antibody affinity. Antibody binding data for a representative antigen coating concentration that fell in the linear range of the instrument signal detection is shown in Table 7.2. The degree of antibody binding to the target (ASGR-1) correlates with the measured fluorescent intensity and thus allows a relative comparison of affinities across the panel.
B1: the “FACS Geomean” value is 4660 FACS Geomean.
As for B2, the figure is 21900 FACS Geomean; as for B3, 2150 FACS Geomean; as for B4, 105 FACS Geomean.
Regarding B5, the “FACS Geomean” value is 18300 FACS Geomean.
As for B6, the figure is 6800 FACS Geomean.
As for B7, the figure is 3280 FACS Geomean.
B8: the “FACS Geomean” value worked out at 6490 FACS Geomean.
Turning to B9, the “FACS Geomean” value was 29400 FACS Geomean.
For the molecule B10, the “FACS Geomean” value was 35800 FACS Geomean.
In the case of B11 it was 1080 FACS Geomean; in that of B12, 18000 FACS Geomean; in that of B13, 12000 FACS Geomean.
In the case of B14 it was 15100 FACS Geomean.
For B15, the “FACS Geomean” value amounted to 1870 FACS Geomean.
In the case of B16 it was 13900 FACS Geomean; in that of B17, 17700 FACS Geomean; in that of B18, 16900 FACS Geomean.
As for B19, the figure is 26000 FACS Geomean; as for B20, 9550 FACS Geomean; as for B21, 24200 FACS Geomean.
In the case of B22 it was 27000 FACS Geomean.
For B23, the “FACS Geomean” value amounted to 2290 FACS Geomean.
